Laboratory results published in patent publication US20110118131A1 (published 2011).
Substitutions are numbered along the chain they refer to.

T1: Ep-CAM (UniProt P16422 24-265, limits assumed)
T1 construct: Amine coupled to a CM5 chip in the Biacore assays
T1 sequence (looked up): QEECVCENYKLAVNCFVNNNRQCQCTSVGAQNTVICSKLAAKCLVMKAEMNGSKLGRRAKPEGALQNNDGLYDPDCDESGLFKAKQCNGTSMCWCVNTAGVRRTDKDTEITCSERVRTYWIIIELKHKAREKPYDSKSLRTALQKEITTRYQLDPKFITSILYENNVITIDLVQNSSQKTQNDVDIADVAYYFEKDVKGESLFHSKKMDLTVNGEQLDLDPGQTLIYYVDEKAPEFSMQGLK

B1: ING-1 light chain L29Q (Fab, V domains shown)
VH: QIQLVQSGPELKKPGETVKISCKASGYTFTKYGMNWVKQAPGKGLKWMGWINTYTEEPTYGDDFKGRFAFSLETSASTANLQINNLKSEDTATYFCARFGSAVDYWGQGTSVTVSS
VL: DIVMTQAAFSNPVTLGTSGSISCRSSKSQLHSNGITYLYWYLQKPGQSPQLLIYQMSNLASGVPDRFSSSGSGTDFTLRISRVEAEDVGVYYCAQNLELPRTFGGGTKLEMKR
notes: Fab, periplasmic extract
B2: ING-1 light chain L99N (Fab, V domains shown)
VH: B1 VH
VL: B1 VL with Q29L, L99N
notes: Fab, periplasmic extract
B3: ING-1 light chain R101D (Fab, V domains shown)
VH: B1 VH
VL: B1 VL with Q29L, R101D
notes: Fab, periplasmic extract
B4: ING-1 light chain L29Y (Fab, V domains shown)
VH: B1 VH
VL: B1 VL with Q29Y
notes: Fab, periplasmic extract
B5: ING-1 light chain Q55D (Fab, V domains shown)
VH: B1 VH
VL: B1 VL with Q29L, Q55D
notes: Fab, periplasmic extract
B6: ING-1 light chain L99E (Fab, V domains shown)
VH: B1 VH
VL: B1 VL with Q29L, L99E
notes: Fab, periplasmic extract
B7: ING-1 light chain L29W (Fab, V domains shown)
VH: B1 VH
VL: B1 VL with Q29W
notes: Fab, periplasmic extract
B8: ING-1 light chain P100R (Fab, V domains shown)
VH: B1 VH
VL: B1 VL with Q29L, P100R
notes: Fab, periplasmic extract
B9: ING-1 light chain L99S (Fab, V domains shown)
VH: B1 VH
VL: B1 VL with Q29L, L99S
notes: Fab, periplasmic extract
B10: ING-1 light chain L30R (Fab, V domains shown)
VH: B1 VH
VL: B1 VL with Q29L, L30R
notes: Fab, periplasmic extract
B11: ING-1 light chain P100S (Fab, V domains shown)
VH: B1 VH
VL: B1 VL with Q29L, P100S
notes: Fab, periplasmic extract
B12: ING-1 light chain L97R (Fab, V domains shown)
VH: B1 VH
VL: B1 VL with Q29L, L97R
notes: Fab, periplasmic extract
B13: ING-1 light chain P100N (Fab, V domains shown)
VH: B1 VH
VL: B1 VL with Q29L, P100N
notes: Fab, periplasmic extract
B14: ING-1 light chain L30E (Fab, V domains shown)
VH: B1 VH
VL: B1 VL with Q29L, L30E
notes: Fab, periplasmic extract
B15: ING-1 light chain L30W (Fab, V domains shown)
VH: B1 VH
VL: B1 VL with Q29L, L30W
notes: Fab, periplasmic extract
B16: ING-1 light chain L97D (Fab, V domains shown)
VH: B1 VH
VL: B1 VL with Q29L, L97D
notes: Fab, periplasmic extract
B17: ING-1 light chain P100Q (Fab, V domains shown)
VH: B1 VH
VL: B1 VL with Q29L, P100Q
notes: Fab, periplasmic extract
B18: ING-1 light chain L99D (Fab, V domains shown)
VH: B1 VH
VL: B1 VL with Q29L, L99D
notes: Fab, periplasmic extract
B19: ING-1 light chain L99Y (Fab, V domains shown)
VH: B1 VH
VL: B1 VL with Q29L, L99Y
notes: Fab, periplasmic extract
B20: ING-1 light chain L99K (Fab, V domains shown)
VH: B1 VH
VL: B1 VL with Q29L, L99K
notes: Fab, periplasmic extract
B21: ING-1 light chain L29R (Fab, V domains shown)
VH: B1 VH
VL: B1 VL with Q29R
notes: Fab, periplasmic extract
B22: ING-1 light chain N33K (Fab, V domains shown)
VH: B1 VH
VL: B1 VL with Q29L, N33K
notes: Fab, periplasmic extract
B23: ING-1 light chain N33Y (Fab, V domains shown)
VH: B1 VH
VL: B1 VL with Q29L, N33Y
notes: Fab, periplasmic extract
B24: ING-1 light chain Q55E (Fab, V domains shown)
VH: B1 VH
VL: B1 VL with Q29L, Q55E
notes: Fab, periplasmic extract
B25: ING-1 light chain L99R (Fab, V domains shown)
VH: B1 VH
VL: B1 VL with Q29L, L99R
notes: Fab, periplasmic extract
B26: ING-1 light chain L99H (Fab, V domains shown)
VH: B1 VH
VL: B1 VL with Q29L, L99H
notes: Fab, periplasmic extract
B27: ING-1 light chain P100E (Fab, V domains shown)
VH: B1 VH
VL: B1 VL with Q29L, P100E
notes: Fab, periplasmic extract
B28: ING-1 light chain L99Q (Fab, V domains shown)
VH: B1 VH
VL: B1 VL with Q29L, L99Q
notes: Fab, periplasmic extract
B29: ING-1 light chain L30K (Fab, V domains shown)
VH: B1 VH
VL: B1 VL with Q29L, L30K
notes: Fab, periplasmic extract
B30: ING-1 light chain P100H (Fab, V domains shown)
VH: B1 VH
VL: B1 VL with Q29L, P100H
notes: Fab, periplasmic extract
B31: ING-1 light chain P100D (Fab, V domains shown)
VH: B1 VH
VL: B1 VL with Q29L, P100D
notes: Fab, periplasmic extract
B32: ING-1 light chain P100K (Fab, V domains shown)
VH: B1 VH
VL: B1 VL with Q29L, P100K
notes: Fab, periplasmic extract

target: T1, Ep-CAM; experiment: Biacore, Fab periplasmic extract

Row | binding result | fold difference in affinity vs parental ING-1 [fold] | Binder
1 | no binding |  | B1
2 |  | 2 | B2
3 | no binding |  | B3
4 | no binding |  | B4
5 |  | 0.05 | B5
6 |  | 0.01 | B6
7 | no binding |  | B7
8 |  | 0.05 | B8
9 |  | 0.04 | B9
10 | no binding |  | B10
11 |  | 0.06 | B11
12 | no binding |  | B12
13 |  | 0.05 | B13
14 | no binding |  | B14
15 | no binding |  | B15
16 | no binding |  | B16

Row | binding result | fold difference in affinity vs parental ING-1 [fold] | Binder
17 |  | 0.04 | B17
18 |  | 0.02 | B18
19 |  | 1 | B19
20 |  | 0.02 | B20
21 | no binding |  | B21
22 |  | 0.7 | B22
23 |  | 0.8 | B23
24 |  | 0.05 | B24
25 |  | 0.04 | B25
26 |  | 0.05 | B26
27 |  | 0.06 | B27
28 |  | 0.02 | B28
29 | no binding |  | B29
30 |  | 0.05 | B30
31 |  | 0.02 | B31
32 |  | 0.03 | B32
